Source: US20230257458A1 (SUNSHINE LAKE PHARMA, published 2023)
Numbering of substitutions follows the chain as printed.

T1: IL-11-Fc protein (UniProt P20809 22-199, limits assumed)
T1 construct: also called IL-11 recombinant protein with Fc tag; not shown: Fc tag
T1 sequence (looked up): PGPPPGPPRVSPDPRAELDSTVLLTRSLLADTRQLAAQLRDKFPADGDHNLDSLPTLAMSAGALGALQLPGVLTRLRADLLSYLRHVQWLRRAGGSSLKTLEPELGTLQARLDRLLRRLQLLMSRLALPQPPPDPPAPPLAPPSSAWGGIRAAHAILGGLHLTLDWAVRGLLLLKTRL

T2: IL-11 protein (UniProt P20809 22-199, limits assumed)
T2 construct: also called IL-11 antigen
T2 sequence (looked up): T1 sequence (looked up)

B1: humanized antibody VH1+VL3, full-length (IgG format) (antibody, V domains shown)
VH: QVQLVQSGAEVKKPGASVKVSCKASDYTFTNYWLGWVRQAPGQGLEWMGHIYPGGGYTNYNEKFKGRVTMTRDTSTSTVYMELSSLRSEDTAVYYCARVRSGNDALDFWGQGTLVTVSS
VL: EIVLTQSPATLSLSPGERATLSCRASESVDEYGISFMNWFQQKPGQAPRLLIYSASNQGSGIPARFSGSGSGTDFTLTISSLEPEDFAVYFCQQSKEVPWTFGGGTKLEIK
B2: humanized antibody VH1+VL2, full-length (IgG format) (antibody, V domains shown)
VH: B1 VH
VL: B1 VL with F40Y
B3: humanized antibody VH1+VL4, full-length (IgG format) (antibody, V domains shown)
VH: B1 VH
VL: B1 VL with V89M
B4: 3-15D5-6A1 (antibody, human IgG1, kappa, V domains shown)
VH: EVKLLESGGGLVQPGGSLKLSCAASGFDFRRYWMSWVRQAPGKGLEWIGQINPDSSMINYTPSLKDKFIISRDNAKNTLYLQMSEVRSEDTALYYCATYGHHATDSWGQGTSVTVSS
VL: DIVLTQSPASLAVSLGQRATISCRASESVDSYGNSFMHWYQQKPGQPPKLLIYRASNLESGIPARFSGSGSRTDFTLTINPVEADDVATYYCQQSNEDPFTFGSGTKLEIKR
B5: 3-9E1-3A2 (antibody, human IgG1, kappa, V domains shown)
VH: QIQLVQSGPELKKPGETVNISCRASGDTFTNYAVNWVKQAPGKGLKWMGWIDTYTGDPTYADDLKGRFAFSLETSATTAYLQINNLKNEDTATYFCAGDTWFAYWGQGTLVTVSA
VL: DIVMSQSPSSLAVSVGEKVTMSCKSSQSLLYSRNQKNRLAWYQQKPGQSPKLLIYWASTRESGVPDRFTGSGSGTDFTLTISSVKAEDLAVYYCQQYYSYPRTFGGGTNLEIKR
B6: 3-5B2-2G4 (antibody, human IgG1, kappa, V domains shown)
VH: QIQLVQSGPELKKPGETVKISCKASGYTFTNYGMNWVKQAPGKGLKWMGWINTNTGEPTYAEEIKGRFAFSLETSASTAYLQINNLKNEDTATYFCSREGIYGMDSWGQGTSVTVSS
VL: SIVMTQTPKFLLVSAGDRVTITCKASQSVSNDVVWYRQKPGQSPKLLIYYASNRYIGVPDRFTGSGYGTDFTFTISTVQAEDLAVYFCQQDYYSPWTFGGGTKLEIKR
B7: 3-2B5-3D2 (antibody, human IgG1, kappa, V domains shown)
VH: QVQLKQSGPGLVLPSQSLSITCTVSGFSLTSYGVHWFRQSPGTGLEWLGVIWSGGITDYNATFIPRLSISKDNSKSQVFFKMNSLQADDTAIYYCARNFDGYYYSIDYWGQGTSVTVSS
VL: DIQMTQTTSSLSASLGDRVTISCRASQDISNSLNWYQQKPDGTVKLLIYYTSRLHSGVPSRFTGSGSGTDYSLTISNLEQEDIATYFCQQGNTLPLTFGAGTKLELKR
B8: 3-7C9-1A6 (antibody, human IgG1, kappa, V domains shown)
VH: QVQLKQSGPGLVQPSQSLSITCTVSGFSLTNYGVHWVRQSPGKGLEWLGAIWRGGSTDYNAAFMSRLSITKDNSKSQVFFKMNSLQPDDTAIYYCAKNLYGPAAMDYWGQGTSVTVSS
VL: DIQMNQSPSSLSASLGDTITITCHANQNIYVWLSWYQQKPGNIPKLLIYEASNLHTGVPSRFSGSGSGTGFTLTISSLQPEDIATYYCQQGQSYPYTFGGGTKLEIKR
B9: 3-15D5-3A6 (antibody, human IgG1, kappa, V domains shown)
VH: QVTLKESGPGILQPSQTLSLTCSFSGFSLSSSGMSVGWIRQPSGKGLEWLAHIWWSDDKSYNPALKSRLTISKDTSNNQVFLKIASVVTADTATYYCAREGSLGYGLDYWGQGTTLTVSS
VL: DVLMTQTPLSLPVSLGDQASISCRSSQSIVHTDGNTYLEWYLQKPGQSPKLLIYKVSNRFSGVPDRFSGSGSGTDFTLKISRVEAEDLGVYYCFQGSHVPWTFGGGTKLEIKR
B10: VH2 + VL3-scFv (scFv, V domains shown)
VH: B1 VH with M48I, R72A, Y95F
VL: B1 VL
notes: Humanized 5-20E11-5F2; CHO supernatant; Called scFv, but heavy and light vectors were co-transfected
B11: VH1 + VL2-scFv (scFv, V domains shown)
VH: B1 VH
VL: B1 VL with F40Y
notes: as for B10
B12: VH1 + VL1-scFv (scFv, V domains shown)
VH: B1 VH
VL: B1 VL with F40Y, F91Y
notes: as for B10
B13: VH3 + VL4-scFv (scFv, V domains shown)
VH: B1 VH with M48I, V68A, M70L, R72A, Y95F
VL: B1 VL with V89M
notes: as for B10
B14: VH2 + VL4-scFv (scFv, V domains shown)
VH: B1 VH with M48I, R72A, Y95F
VL: B1 VL with V89M
notes: as for B10
B15: VH4 + VL4-scFv (scFv, V domains shown)
VH: B1 VH with Q43H, M48I, V68A, M70L, R72A, Y95F
VL: B1 VL with V89M
notes: as for B10
B16: VH1 + VL4-scFv (scFv, V domains shown)
VH: B1 VH
VL: B1 VL with V89M
notes: as for B10
B17: VH2 + VL2-scFv (scFv, V domains shown)
VH: B1 VH with M48I, R72A, Y95F
VL: B1 VL with F40Y
notes: as for B10
B18: VH3 + VL3-scFv (scFv, V domains shown)
VH: B1 VH with M48I, V68A, M70L, R72A, Y95F
VL: B1 VL
notes: as for B10
B19: VH4 + VL2-scFv (scFv, V domains shown)
VH: B1 VH with Q43H, M48I, V68A, M70L, R72A, Y95F
VL: B1 VL with F40Y
notes: as for B10
B20: VH4 + VL1-scFv (scFv, V domains shown)
VH: B1 VH with Q43H, M48I, V68A, M70L, R72A, Y95F
VL: B1 VL with F40Y, F91Y
notes: as for B10
B21: VH2 + VL1-scFv (scFv, V domains shown)
VH: B1 VH with M48I, R72A, Y95F
VL: B1 VL with F40Y, F91Y
notes: as for B10
B22: VH4 + VL3-scFv (scFv, V domains shown)
VH: B1 VH with Q43H, M48I, V68A, M70L, R72A, Y95F
VL: B1 VL
notes: as for B10
B23: VH3 + VL2-scFv (scFv, V domains shown)
VH: B1 VH with M48I, V68A, M70L, R72A, Y95F
VL: B1 VL with F40Y
notes: as for B10
B24: VH3 + VL1-scFv (scFv, V domains shown)
VH: B1 VH with M48I, V68A, M70L, R72A, Y95F
VL: B1 VL with F40Y, F91Y
notes: as for B10
B25: VH1 + VL3-scFv (scFv, V domains shown)
VH: B1 VH
VL: B1 VL
notes: as for B10

Biological target: T1, IL-11-Fc protein
Assay: flow competition: IL-11-Fc + antibody dilutions on membrane-IL-11R CHO cells
Experimental: Then the plate was incubated with 1.5*10\hat{ }5 membrane-IL-11R CHO cells (100 ul/well) for 1 h at room temperature. After incubation, the plate was centrifuged at 1500 rpm for 5 min, washed three times with PBS, and 1:400 diluted flow secondary antibody Goat-anti-Fc-FITC (Abcam, ab98529) was added with 200 ul/well. Then, the plate was incubated at 4° C. for 1 h, centrifuged at 1500 rpm for 5 min, washed three times with PBS, resuspended cells in 180 ul PBS, and detected by flow cytometry.

| Binder | EC50 [µg/mL] |
| --- | --- |
| B1 | 10.5 |
| B2 | 11.6 |
| B3 | 12.5 |

Biological target: T2, IL-11 protein
Assay: flow competition: IL-11 + antibody on IL-11R cells; lower = more blocking
Text: (§1) Cell lines with high secretion of specific antibody were selected for expanded culture and cryopreservation.

| Binder | FITC Mean |
| --- | --- |
| B4 | 13600 |
| B5 | 9070 |
| B6 | 19800 |
| B7 | 15300 |
| B8 | 3150 |
| B9 | 10900 |

Biological target: T2, IL-11 protein
Assay: SPR (Biacore), IgG captured, IL-11 6.25-400 nM as analyte
Experimental: (§2) The measure method included the steps of capturing the humanized antibody at a flow rate of 10 ul/min. […] Finally the chip was regenerated with 10 mM glycine buffer.

| Binder | Kd [nM] | koff [s⁻¹] | kon [M⁻¹ s⁻¹] |
| --- | --- | --- | --- |
| B1 | 9.03 | 0.000474 | 52600 |
| B2 | 12 | 0.000597 | 49800 |
| B3 | 10 | 0.000545 | 54300 |

Biological target: T2, IL-11 protein
Assay: SPR (Biacore), antibody captured, 400 nM IL-11 as analyte
Experimental: as §2

| Binder | Kd [nM] | koff [s⁻¹] | kon [M⁻¹ s⁻¹] |
| --- | --- | --- | --- |
| B10 | 11.9 | 0.000541 | 45600 |
| B11 | 11.2 | 0.000461 | 41300 |
| B12 | 21.6 | 0.000758 | 35100 |
| B13 | 13.3 | 0.000556 | 41800 |
| B14 | 10.8 | 0.000528 | 48800 |
| B15 | 10 | 0.000481 | 47900 |
| B16 | 11.7 | 0.000387 | 33100 |
| B17 | 17.8 | 0.000812 | 45700 |
| B18 | 9.76 | 0.000464 | 47600 |
| B19 | 11.1 | 0.000614 | 55200 |
| B20 | 17.2 | 0.00084 | 48900 |
| B21 | 16.7 | 0.00089 | 53400 |
| B22 | 11.2 | 0.000516 | 46100 |
| B23 | 14.6 | 0.00068 | 46500 |
| B24 | 22.5 | 0.001 | 44500 |
| B25 | 12.3 | 0.000436 | 35500 |

Biological target: T2, IL-11 protein
Assay: ELISA, monoclonal hybridoma supernatant on IL-11
Text: as §1

| Binder | OD450 |
| --- | --- |
| B4 | 1.51 |
| B5 | 1.54 |
| B6 | 1.65 |
| B7 | 1.61 |
| B8 | 1.6 |
| B9 | 1.69 |
